Test results from patent publication US20230340159A1 (published 2023).
One block for each binder: values may come before it.

Experiments:
[1] = molecular target: cyno EpCAM (cyno); test: ratio of cyno to human binding affinity
[2] = molecular target: cyno EpCAM (cyno); test: column 'Cyno binding affinity (nM)'; method not stated
[3] = molecular target: T1, human EpCAM (human, UniProt P16422 24-265, limits assumed); test: column 'Human binding affinity (nM)'; method not stated
T1 sequence (looked up): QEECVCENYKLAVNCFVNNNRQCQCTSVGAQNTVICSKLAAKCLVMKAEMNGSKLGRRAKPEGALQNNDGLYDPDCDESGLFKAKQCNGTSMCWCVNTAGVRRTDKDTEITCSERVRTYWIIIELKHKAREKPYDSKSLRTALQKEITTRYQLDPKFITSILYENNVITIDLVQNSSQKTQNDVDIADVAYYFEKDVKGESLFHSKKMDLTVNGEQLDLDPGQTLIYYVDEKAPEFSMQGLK

Cyno/Human cross reactivity [1]: 12.6 ratio cyno/human
Kd [2]: 58.8 nM
Kd [3]: 4.1 nM
B1: hVIB-23 (VHH)
VHH: QVQLVESGGGLVQPGGSLTLSCVISGSFSALWAMRWYRQAPGQQRELVASSRGGTTSYADSVKGRFTISRDNSKNTLYLQMNSLRPEDTAVYYCNAIDGHLAYWGQGTLVTVSS
notes: Tied by label only (hVIB-23 = h23); also called EpCAM h23; sdABD-EpCAM h23

Cyno/Human cross reactivity [1]: 4.5 ratio cyno/human
Kd [2]: 12.7 nM
Kd [3]: 2.8 nM
B2: hVIB-13 (VHH)
VHH: QVQLVESGGGLVQPGGSLTLSCAASGTGSIFSINLMGWYRQAPGKQRELVARITSGDSTVYADSVKGRFTISRDNSKNTLYLQMNSLRPEDTAVYYCNLLLRSSPGATTPYWGQGTLVTVSS
notes: Tied by label only (hVIB-13 = h13); also called EpCAM h13; sdABD-EpCAM h13
